From article PMC2151181 (The Journal of Cell Biology, 1999)

Target: SNARE core complex (synaptobrevin-II 1–96, syntaxin-1A 180–262, SNAP-25A 1–83, SNAP-25A 130–206) (rat, UniProt P63045;P32851;P60881-2)
Assay: native gel or EMSA

B1: synaptotagmin III C2A-C2B, residues 295–569 (domain or fragment)
chain: APCGRISFALRYLYGSDHLVVRILQALDLPAKDSNGFSDPYVKIYLLPDRKKKFQTKVHRKTLNPIFNETFQFSVPLAELAQRKLHFSVYDFDRFSRHDLIGQVVLDNLLELAEQPPDRPLWRDILEGGSEKADLGELNFSLCYLPTAGRLTVTIIKASNLKAMDLTGFSDPYVKASLISEGRRLKKRKTSIKKNTLNPTYNEALVFDVAPESVENVGLSIAVVDYDCIGHNEVIGVCRVGPEAADPHGREHWAEMLANPRKPVEHWHQLVEEKT
- binding result: binds
